Laboratory results taken from patent publication US20230340055A1 (published 2023).

Experiments:
[1] = molecular target: T1, IL-2-Rα/β/γ on the murine CTLL-2 T lymphocyte cell line (murine, UniProt P01590 22-268; P16297 27-539; P34902 23-369); assay: cell-based or functional assay
T1 sequence (looked up) 1: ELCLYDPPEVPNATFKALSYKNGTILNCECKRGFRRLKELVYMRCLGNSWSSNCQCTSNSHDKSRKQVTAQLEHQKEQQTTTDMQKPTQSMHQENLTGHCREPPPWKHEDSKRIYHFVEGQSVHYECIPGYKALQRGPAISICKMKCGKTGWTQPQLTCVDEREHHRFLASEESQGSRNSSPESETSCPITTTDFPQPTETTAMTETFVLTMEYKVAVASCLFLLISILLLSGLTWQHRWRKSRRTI
T1 sequence (looked up) 2: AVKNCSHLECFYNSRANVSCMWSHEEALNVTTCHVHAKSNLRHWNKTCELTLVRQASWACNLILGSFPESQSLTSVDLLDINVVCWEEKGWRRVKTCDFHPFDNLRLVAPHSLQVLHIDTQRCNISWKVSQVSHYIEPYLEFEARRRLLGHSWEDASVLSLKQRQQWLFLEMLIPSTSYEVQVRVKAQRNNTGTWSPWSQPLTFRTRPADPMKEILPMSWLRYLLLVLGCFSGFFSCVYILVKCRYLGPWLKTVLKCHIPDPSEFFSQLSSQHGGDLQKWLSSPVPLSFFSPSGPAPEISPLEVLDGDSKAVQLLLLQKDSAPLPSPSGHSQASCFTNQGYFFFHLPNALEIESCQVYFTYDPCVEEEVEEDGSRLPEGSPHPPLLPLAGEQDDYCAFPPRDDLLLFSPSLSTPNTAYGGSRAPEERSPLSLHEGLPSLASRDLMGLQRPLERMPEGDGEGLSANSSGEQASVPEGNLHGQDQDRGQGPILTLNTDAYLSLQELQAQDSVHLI
T1 sequence (looked up) 3: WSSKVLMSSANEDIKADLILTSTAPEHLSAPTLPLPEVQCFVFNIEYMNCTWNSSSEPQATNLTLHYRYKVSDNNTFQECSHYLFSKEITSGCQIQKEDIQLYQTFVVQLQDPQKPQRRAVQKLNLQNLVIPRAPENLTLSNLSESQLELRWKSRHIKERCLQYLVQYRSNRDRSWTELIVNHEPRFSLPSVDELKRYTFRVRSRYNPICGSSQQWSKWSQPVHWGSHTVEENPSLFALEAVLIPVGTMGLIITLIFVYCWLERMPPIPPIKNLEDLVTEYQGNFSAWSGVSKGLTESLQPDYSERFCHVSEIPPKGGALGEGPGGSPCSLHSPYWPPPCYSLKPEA

[2] = molecular target: T2, Human IL-2 Receptor alpha, Fc-Tag (Symansis, New Zealand) (human, UniProt P01589 22-240); assay: calculated from the SPR KD values of Example 15; reference protein 5a
T2 construct: extracellular domain; Bought reagent; also called IL-2Rα; IL-2Rα-Fc; not shown: Fc-Tag (captured by anti-human IgG (Fc) antibody)
T2 sequence (looked up): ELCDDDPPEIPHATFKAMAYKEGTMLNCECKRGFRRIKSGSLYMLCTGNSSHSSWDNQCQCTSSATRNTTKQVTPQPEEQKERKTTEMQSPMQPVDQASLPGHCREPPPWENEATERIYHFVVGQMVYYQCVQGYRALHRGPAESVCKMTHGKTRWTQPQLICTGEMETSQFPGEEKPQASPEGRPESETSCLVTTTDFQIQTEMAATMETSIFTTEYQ
Experimental: (§1) For the determination of binding kinetics to IL-2Rα the following chip preparation was used: Human IL-2 Receptor alpha, Fc-Tag (Symansis, New Zealand) was diluted in HBS-EP running buffer (GE Healthcare, 10 mM HEPES, 150 mM NaCl, 3 mM EDTA, 0.05% Surfactant P20, pH 7.4) to approx. 0.25 µg/mL and immobilized at a flow rate of 50 µL/min for 60 s to achieve 90 - 110 response units (RU).
as §1, with “IL-2Rβ” for “IL-2Rα”, “beta,” for “alpha,”, “around” for “approx.”, “300” for “90”, “330” for “110”
(50 µL/min flow rate, 60 s contact time, 300 s dissociation time). Double referenced data (subtracted data from the reference flow cell and the buffer only samples) was analysed via a kinetic fit (1:1 binding model) to determine KD, kₐ and kd. Regeneration after each cycle was performed with 3 M MgCl₂.

ratio of Ratio protein 6 to Ratio protein 5a (EC50 CTLL-2 cells / EC50 HH cells) [1]: > 250
ratio of Ratio protein 6 to Ratio protein 5a (KD to IL-2Rα / KD to IL-2Rβ) [2]: > 100
B1: protein 6 (ligand)
chain: APTSSSTKKTQLQLEHLLLDLQMILNGINNYKNPKLTFGNSTKFYMPKKATELKHLQCLEEELKPLEEVLNLAQSKNFHLRPRDLISNINVIVLELKGSETTFMCEYADETATIVEFLNRWITFSQSIISTLT
modifications: glycosylated (same sequence with the N-glycosylation motif FGNST as protein 1f); glycan sites not analysed separately for protein 6
